Residue numbers refer to the chain shown, from its start.
B1: BIIB-12-1333 (antibody, V domains shown)
VH: QVQLVQSGAEVKKPGASVKVSCKASGYTFTSYYMVWVRQAPGQGLEWMGIINPSGGSTSYAQKFQGRVTMTRDTSTSTVYMELSSLRSEDTAVYYCARVSRRDYPLAFDIWGQGTMVTVSS
VL: EIVMTQSPATLSVSPGERATLSCRASQSVSSNLAWYQQKPGQAPRLLIYGASTRATGIPARFSGSGSGTEFTLTISSLQSEDFAVYYCQQVNTWPTFGGGTKVEIK
notes: IgG
B2: BIIB-12-1326 (antibody, V domains shown)
VH: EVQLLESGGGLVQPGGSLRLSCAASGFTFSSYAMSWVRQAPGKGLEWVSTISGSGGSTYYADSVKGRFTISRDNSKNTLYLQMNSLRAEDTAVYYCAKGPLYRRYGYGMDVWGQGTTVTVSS
VL: EIVLTQSPGTLSLSPGERATLSCRASQSVRSSYLAWYQQKPGQAPRLLIYGASSRATGIPDRFSGSGSGTDFTLTISRLEPEDFAVYYCQQAYSSPLTFGGGTKVEIK
notes: IgG
B3: BIIB-12-1324 (antibody, V domains shown)
VH: QVQLVQSGAEVKKPGASVKVSCKASGYTFTSYYMVWVRQAPGQGLEWMGIINPSGGSTSYAQKFQGRVTMTRDTSTSTVYMELSSLRSEDTAVYYCARLPRYSKRGLDVWGQGTMVTVSS
VL: EIVMTQSPATLSLSPGERATLSCRASQSVSSYLAWYQQKPGQAPRLLIYDSSNRATGIPARFSGSGSGTDFTLTISSLEPEDFAVYYCQQLVSWPTFGGGTKVEIK
notes: IgG
B4: BIIB-12-1325 (antibody, V domains shown)
VH: QVQLVQSGAEVKKPGASVKVSCKASGYTFTSYYMVWVRQAPGQGLEWMGIINPSGGSTSYAQKFQGRVTMTRDTSTSTVYMELSSLRSEDTAVYYCARGGRYMLDPWGQGTLVTVSS
VL: DIQMTQSPSTLSASVGDRVTITCRASQSISSWLAWYQQKPGKAPKLLIYKASSLESGVPSRFSGSGSGTEFTLTISSLQPDDFATYYCQQSNRYPRTFGGGTKVEIK
notes: IgG
B5: BIIB-12-1327 (antibody, V domains shown)
VH: QVQLVESGGGVVQPGRSLRLSCAASGFTFSSYGMHWVRQAPGKGLEWVAVISYDGSNKYYADSVKGRFTISRDNSKNTLYLQMNSLRAEDTAVYYCAKLGLARGGGYGMDVWGQGTTVTVSS
VL: EIVMTQSPATQYVSPGERATLSCRASQSVSSNLAWYQQKPGQAPRLLIYGASTRATGIPARFSGSGSGTEFTLTISSLQSEDFAVYYCQQYHNFPPTFGGGTKVEIK
notes: IgG
B6: BIIB-12-1329 (antibody, V domains shown)
VH: QVQLVESGGGVVQPGRSLRLSCAASGFTFSSYGMHWVRQAPGKGLEWVAVISYDGSNKYYADSVKGRFTISRDNSKNTLYLQMNSLRAEDTAVYYCARGGAGSRYFQHWGQGTLVTVSS
VL: B5 VL with Q11K, Y12S, G50S, Y91V, H92F, F94W, E105K
notes: IgG
B7: BIIB-12-1328 (antibody, V domains shown)
VH: QLQLQESGPGLVKPSETLSLTCTVSGGSISSSSYYWGWIRQPPGKGLEWIGSIYYSGSTYYNPSLKSRVTISVDTSKNQFSLKLSSVTAADTAVYYCARDPAYYSGHDYYYYGMDVWGQGTTVTVSS
VL: B5 VL with Q11L, Y12S, Y91P, H92N, N93S, F94Y, P96L
notes: IgG
B8: BIIB-12-1330 (antibody, V domains shown)
VH: QVQLVESGGGVVQPGRSLRLSCAASGFTFSSYGMHWVRQAPGKGLEWVAVISYDGSNKYYADSVKGRFTISRDNSKNTLYLQMNSLRAEDTAVYYCAKGGSARWINIWGQGTTVTVSS
VL: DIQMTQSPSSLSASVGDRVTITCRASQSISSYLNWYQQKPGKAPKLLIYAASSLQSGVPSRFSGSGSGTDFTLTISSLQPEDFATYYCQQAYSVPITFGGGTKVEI
notes: IgG
B9: BIIB-12-1332 (antibody, V domains shown)
VH: QVQLVQSGAEVKKPGASVKVSCKASGYTFTSYYMSWVRQAPGQGLEWMGIINPSGGSTSYAQKFQGRVTMTRDTSTSTVYMELSSLRSEDTAVYYCARLGRKSRVFDIWGQGTMVTVSS
VL: DIQMTQSPSSVSASVGDRVTITCRASQGISSWLAWYQQKPGKAPKLLIYAASSLQSGVPSRFSGSGSGTDFTLTISSLQPEDFATYYCQQVNSFPLTFGGGTKVEFK
notes: IgG
B10: BIIB-9-608 (antibody, V domains shown)
VH: QLQLQESGPGLVKPSETLSLTCTVSGGSISSSSYYWGWIRQPPGKGLEWIGSIYYSGSTYYNPSLKSRVTISVDTSKNQFSLKLSSVTAADTAVYYCARDRLETSEAGMDVWGQGTTVTVSS
VL: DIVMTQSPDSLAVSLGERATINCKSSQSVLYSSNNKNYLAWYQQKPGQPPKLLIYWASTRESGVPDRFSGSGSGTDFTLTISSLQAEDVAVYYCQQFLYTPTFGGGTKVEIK
notes: IgG
B11: BIIB-9-592 (antibody, V domains shown)
VH: QLQLQESGPGLVKPSETLSLTCTVSGGSISSNSYYWGWIRQPPGKGLEWIGSIYYSGSTYYNPSLKSRVTISVDTSKNQFSLKLSSVTAADTAVYYCARDSNYDSSGYALYYYGMDVWGQGTTVTVSS
VL: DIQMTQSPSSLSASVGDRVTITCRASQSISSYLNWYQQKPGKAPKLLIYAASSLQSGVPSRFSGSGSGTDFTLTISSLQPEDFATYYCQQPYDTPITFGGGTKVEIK
notes: IgG
B12: BIIB-9-590 (antibody, V domains shown)
VH: B3 VH with V35H, L99D, P100Q, R101E, Y102W, S103A, K104Y, R105Y, L107M, M115T
VL: EIVLTQSPATLSLSPGERATLSCRASQSVSSYLAWYQQKPGQAPRLLIYDASNRATGIPARFSGSGSGTDFTLTISSLEPEDFAVYYCQQVDNFPLTFGGGTKVEIK
notes: IgG
B13: BIIB-9-616 (antibody, V domains shown)
VH: QVQLVQSGAEVKKPGASVKVSCKASGYTFTSYYMHWVRQAPGQGLEWMGIINPSGGSTSYAQKFQGRVTMTRDTSTSTVYMELSSLRSEDTAVYYCARGGSKYFFDLWGRGTLVTVSS
VL: B5 VL with Q11L, Y12S, N32S, Y91A, H92D, P96F
notes: IgG
B14: BIIB-9-606 (antibody, V domains shown)
VH: QVQLVQSGAEVKKPGASVKVSCKASGYTFTSYYMHWVRQAPGQGLEWMGIINPSGGSTSYAQKFQGRVTMTRDTSTSTVYMELSSLRSEDTAVYYCARTKWSSSPYGMDVWGQGTTVTVSS
VL: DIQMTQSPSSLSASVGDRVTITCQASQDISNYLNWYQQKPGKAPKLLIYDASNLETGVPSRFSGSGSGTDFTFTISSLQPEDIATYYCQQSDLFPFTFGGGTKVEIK
notes: IgG
B15: BIIB-9-582 (antibody, V domains shown)
VH: B14 VH with H35V, T99A, K100P, W101T, S102Y, S103F, S104Y, P105S
VL: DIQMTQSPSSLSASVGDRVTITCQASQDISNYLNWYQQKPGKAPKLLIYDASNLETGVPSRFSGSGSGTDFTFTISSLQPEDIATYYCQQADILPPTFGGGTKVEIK
notes: IgG
B16: BIIB-9-569 (antibody, V domains shown)
VH: B14 VH with T99D, K100G, W101S, S102G, S103Y, G107S, M108F, V110P, T116L
VL: DIQMTQSPSSLSASVGDRVTITCQASQDISNYLNWYQQKPGKAPKLLIYDASNLATGVPSRFSGSGSGTDFTFTISSLQPEDIATYYCQQADDFPFTFGGGTKVEIK
notes: IgG
B17: BIIB-9-627 (antibody, V domains shown)
VH: QVQLVQSGAEVKKPGASVKVSCKASGYTFTSYYMHWVRQAPGQGLEWMGIINPSGGSTSYAQKFQGRVTMTRDTSTSTVYMELSSLRSEDTAVYYCARADYDYWSGYGGLGMDVWGQGTTVTVSS
VL: not shown
notes: IgG
B18: BIIB-9-621 (antibody, V domains shown)
VH: QLQLQESGPGLVKPSETLSLTCTVSGGSISSSSYYWGWIRQPPGKGLEWIGSIYYSGSTYYNPSLKSRVTISVDTSKNQFSLKLSSVTAADTAVYYCARDGSISGSRFDYWGQGTLVTVSS
VL: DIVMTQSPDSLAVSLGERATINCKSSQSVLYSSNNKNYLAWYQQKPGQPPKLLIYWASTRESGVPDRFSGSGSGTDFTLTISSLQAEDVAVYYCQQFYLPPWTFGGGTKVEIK
notes: IgG
B19: BIIB-9-566 (antibody, V domains shown)
VH: QVQLVQSGAEVKKPGASVKVSCKASGYTFTSYYMVWVRQAPGQGLEWMGIINPSGGSTSYAQKFQGRVTMTRDTSTSTVYMELSSLRSEDTAVYYCARVPTYRYSYLAFDIWGQGTMVTVSS
VL: B5 VL with Q11L, Y12S, N32S, Y91H, H92D, F94W
notes: IgG
B20: BIIB-9-452 (antibody, V domains shown)
VH: B9 VH with S35H, L99D, K102L, R104Y, V105T, F106W, I108R, M114L
VL: B5 VL with Q11L, Y12S, Y91A, H92N, P96F
notes: IgG
B21: BIIB-9-622 (antibody, V domains shown)
VH: B19 VH with V35H, V99D, P100G, T101A, Y102T, R103T, Y104V, A108S
VL: B5 VL with Q11L, Y12S, N32S, Y91H, H92S, N93T, F94W
notes: IgG
B22: BIIB-9-581 (antibody, V domains shown)
VH: QVQLVQSGAEVKKPGASVKVSCKASGYTFTSYYMHWVRQAPGQGLEWMGIINPSGGSTSYAQKFQGRVTMTRDTSTSTVYMELSSLRSEDTAVYYCARDPLYYREGYVFDYWGQGTLVTVSS
VL: B9 VL with V11L, G28S, W32Y, A34N, V91S, N92D, S93L, L96F, F106I
notes: IgG
B23: BIIB-9-585 (antibody, V domains shown)
VH: QLQLQESGPGLVKPSETLSLTCTVSGGSISSSDYYWGWIRQPPGKGLEWIGSIYYSGSTYYNPSLKSRVTISVDTSKNQFSLKLSSVTAADTAVYYCAREVGTYYYGLDFWFDPWGQGTLVTVSS
VL: B9 VL with V91A, F94Y, L96I, F106I
notes: IgG
B24: BIIB-9-587 (antibody, V domains shown)
VH: QVQLVQSGAEVKKPGASVKVSCKASGYTFTSYYMHWVRQAPGQGLEWMGIINPSGGSTSYAQKFQGRVTMTRDTSTSTVYMELSSLRSEDTAVYYCARGPPGYEYYMDVWGKGTTVTVSS
VL: B9 VL with V91A, N92D, L96F, F106I
notes: IgG
B25: BIIB-9-414 (antibody, V domains shown)
VH: B14 VH with T99D, K100P, W101Y, S103Y, S104G, P105M, G107Y, M108F, V110Y, T116L
VL: B9 VL with V91G, N92D, S93V, L96F, F106I
notes: IgG

target: T1, non-activatable Factor X (FXn) (Homo sapiens (Human), UniProt P00742 41-488, single biotin on the C-terminal BioTag); assay: BLI; class meaning: paragraph 285
T1 construct: also called BIIB-FX-015

Binding result, binds:
B1
B2
B3
B4
B5
B6
B7
B8
B9

target: T2, FIXa-SM (FIXa+EGR-CMK) (human, UniProt P00740 47-191; P00740 227-461, EGR-CMK (L-Glu-Gly-Arg chloromethyl ketone) covalently bound to the active site); assay: BLI; class meaning: paragraph 914
T2 construct: BLI antigen bought from Haematologic Technologies (HCIXA-EGR); also called FIXa with substrate mimic

Binding result, binds:
B10
B11
B12
B13
B14
B15
B16
B17
B18
B19
B20
B21
B22
B23
B24
B25

Reference: patent publication US20230192896A1 (BIOVERATIV THERAPEUTICS, published 2023)
